Reference: article PMC12678531, “Cytosolic TOP3α facilitates mitochondrial DNA sensing by cGAS”

Biological target: cGAS (Homo sapiens, UniProt Q8N884 1-522)
Assay: EMSA; 300 pmol protein, 50 pmol DNA in 10 uL; EMSA: Beyotime GS005 binding buffer, 37 C, 15 min, 10 uL, 6% PAGE in TBE at 4 C; extract pull-down: 50 mM Tris-HCl pH 7.5, 150 mM NaCl, 0.025% digitonin
Conditions: protein: recombinant; tags: C-terminal LE-6xHis; chain copies: 2; label: none for EMSA (GelRed stain); blunt

cGAS, sequence (Q8N884 whole entry): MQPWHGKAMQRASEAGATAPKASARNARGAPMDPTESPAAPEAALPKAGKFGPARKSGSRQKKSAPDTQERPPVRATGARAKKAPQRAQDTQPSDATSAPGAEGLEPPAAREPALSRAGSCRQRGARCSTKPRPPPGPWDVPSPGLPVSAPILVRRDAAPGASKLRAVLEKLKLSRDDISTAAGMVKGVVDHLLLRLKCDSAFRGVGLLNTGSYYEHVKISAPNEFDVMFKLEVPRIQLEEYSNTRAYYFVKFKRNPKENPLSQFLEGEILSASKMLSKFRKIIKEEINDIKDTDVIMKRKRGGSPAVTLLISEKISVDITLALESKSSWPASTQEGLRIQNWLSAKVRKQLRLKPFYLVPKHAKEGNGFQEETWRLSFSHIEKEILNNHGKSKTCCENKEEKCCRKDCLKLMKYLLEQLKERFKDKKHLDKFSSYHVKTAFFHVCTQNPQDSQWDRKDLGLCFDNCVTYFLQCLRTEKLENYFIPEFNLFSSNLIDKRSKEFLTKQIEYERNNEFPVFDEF

B1: DNA2 (30 bp) (dsDNA)
DNA 1: CCGAAACCAGACGAGCTACCTAAGAACAGC
DNA 2: GCTGTTCTTAGGTAGCTCGTCTGGTTTCGG
- binding result: binds
